The experiment concerns the target APC (UniProt P25054). Briefly: Flag co-IP, immunoblot. The conditions noted are these: reference: wild-type Flag:α-catenin; sites Y177.

1 substance from publication PMC3841736 can be followed below.

α-catenin (from UniProt P35221) Y177F: the “binding against the reference” value is on record as “stronger”.
